According to patent US20260167699A1 (Chugai, published 2026):

B1: GpH7-A5/GpH7-B3 variant Y300_10E/GpL16-k0 (antibody, human IgG1, kappa)
heavy 1: not shown
heavy 2: not shown
light: DIVMTQSPLSLPVTPGEPASISCQASESLVHSNRNTYLHWYLQKPGQSPQLLIYKVSNRFSGVPDRFSGSGSGTDFTLKISRVEAEDVGVYYCSQNTHVPPTFGQGTKVEIERTVAAPSVFIFPPSDEQLKSGTASVVCLLNNFYPREAKVQWKVDNALQSGNSQESVTEQDSKDSTYSLSSTLTLSKADYEKHKVYACEVTHQGLSSPVTKSFNRGEC
notes: copies: 1 + 1 + 2
B2: GpH7-A5/GpH7-B3 variant Y300_16H/GpL16-k0 (antibody, human IgG1, kappa)
heavy 1: not shown
heavy 2: not shown
light: B1 light
notes: copies: 1 + 1 + 2
B3: GpH7-A5/GpH7-B3 variant Y300_20W/GpL16-k0 (antibody, human IgG1, kappa)
heavy 1: not shown
heavy 2: not shown
light: B1 light
notes: copies: 1 + 1 + 2
B4: GpH7-A5/GpH7-B3 variant Y300_14T/GpL16-k0 (antibody, human IgG1, kappa)
heavy 1: not shown
heavy 2: not shown
light: B1 light
notes: copies: 1 + 1 + 2
B5: GpH7-A5/GpH7-B3 variant Y300_11K/GpL16-k0 (antibody, human IgG1, kappa)
heavy 1: not shown
heavy 2: not shown
light: B1 light
notes: copies: 1 + 1 + 2
B6: GpH7-A5/GpH7-B3 variant Y300_18N/GpL16-k0 (antibody, human IgG1, kappa)
heavy 1: not shown
heavy 2: not shown
light: B1 light
notes: copies: 1 + 1 + 2
B7: GpH7-A5/GpH7-B3 variant Y300_13S/GpL16-k0 (antibody, human IgG1, kappa)
heavy 1: not shown
heavy 2: not shown
light: B1 light
notes: copies: 1 + 1 + 2
B8: GpH7-A5/GpH7-B3 variant Y300_19Q/GpL16-k0 (antibody, human IgG1, kappa)
heavy 1: not shown
heavy 2: not shown
light: B1 light
notes: copies: 1 + 1 + 2
B9: GpH7-A5/GpH7-B3 variant H268_05P/GpL16-k0 (antibody, human IgG1, kappa)
heavy 1: not shown
heavy 2: not shown
light: B1 light
notes: He Ab; copies: 1 + 1 + 2
B10: GpH7-A5/GpH7-B3 variant E333_07I/GpL16-k0 (antibody, human IgG1, kappa)
heavy 1: not shown
heavy 2: not shown
light: B1 light
notes: He Ab; copies: 1 + 1 + 2
B11: GpH7-A5/GpH7-B3 variant A330_15Y/GpL16-k0 (antibody, human IgG1, kappa)
heavy 1: not shown
heavy 2: not shown
light: B1 light
notes: He Ab; copies: 1 + 1 + 2
B12: GpH7-A5/GpH7-B3 variant E333_01G/GpL16-k0 (antibody, human IgG1, kappa)
heavy 1: not shown
heavy 2: not shown
light: B1 light
notes: He Ab; copies: 1 + 1 + 2
B13: GpH7-A5/GpH7-B3 variant A330_19Q/GpL16-k0 (antibody, human IgG1, kappa)
heavy 1: not shown
heavy 2: not shown
light: B1 light
notes: He Ab; copies: 1 + 1 + 2
B14: GpH7-A5/GpH7-B3 variant E269_15Y/GpL16-k0 (antibody, human IgG1, kappa)
heavy 1: not shown
heavy 2: not shown
light: B1 light
notes: He Ab; copies: 1 + 1 + 2
B15: GpH7-A5/GpH7-B3 variant A330_16H/GpL16-k0 (antibody, human IgG1, kappa)
heavy 1: not shown
heavy 2: not shown
light: B1 light
notes: He Ab; copies: 1 + 1 + 2
B16: GpH7-A5/GpH7-B3 variant A330_03V/GpL16-k0 (antibody, human IgG1, kappa)
heavy 1: not shown
heavy 2: not shown
light: B1 light
notes: He Ab; copies: 1 + 1 + 2
B17: GpH7-A5/GpH7-B3 variant A330_08L/GpL16-k0 (antibody, human IgG1, kappa)
heavy 1: not shown
heavy 2: not shown
light: B1 light
notes: He Ab; copies: 1 + 1 + 2
B18: GpH7-A5/GpH7-B3 variant A330_12R/GpL16-k0 (antibody, human IgG1, kappa)
heavy 1: not shown
heavy 2: not shown
light: B1 light
notes: He Ab; copies: 1 + 1 + 2
B19: GpH7-A5/GpH7-B3 variant A327_05P/GpL16-k0 (antibody, human IgG1, kappa)
heavy 1: not shown
heavy 2: not shown
light: B1 light
notes: He Ab; copies: 1 + 1 + 2
B20: GpH7-A5/GpH7-B3 variant E269_07I/GpL16-k0 (antibody, human IgG1, kappa)
heavy 1: not shown
heavy 2: not shown
light: B1 light
notes: He Ab; copies: 1 + 1 + 2
B21: GpH7-A5/GpH7-B3 variant D270_06M/GpL16-k0 (antibody, human IgG1, kappa)
heavy 1: not shown
heavy 2: not shown
light: B1 light
notes: He Ab; copies: 1 + 1 + 2
B22: GpH7-A5/GpH7-B3 variant D270_13S/GpL16-k0 (antibody, human IgG1, kappa)
heavy 1: not shown
heavy 2: not shown
light: B1 light
notes: He Ab; copies: 1 + 1 + 2
B23: GpH7-A5/GpH7-B3 variant A327_10E/GpL16-k0 (antibody, human IgG1, kappa)
heavy 1: not shown
heavy 2: not shown
light: B1 light
notes: He Ab; copies: 1 + 1 + 2
B24: GpH7-A5/GpH7-B3 variant A330_04F/GpL16-k0 (antibody, human IgG1, kappa)
heavy 1: not shown
heavy 2: not shown
light: B1 light
notes: He Ab; copies: 1 + 1 + 2
B25: GpH7-A5/GpH7-B3 variant A330_20W/GpL16-k0 (antibody, human IgG1, kappa)
heavy 1: not shown
heavy 2: not shown
light: B1 light
notes: He Ab; copies: 1 + 1 + 2
B26: GpH7-A5/GpH7-B3 variant A327_13S/GpL16-k0 (antibody, human IgG1, kappa)
heavy 1: not shown
heavy 2: not shown
light: B1 light
notes: He Ab; copies: 1 + 1 + 2
B27: GpH7-A5/GpH7-B3 variant E269_09D/GpL16-k0 (antibody, human IgG1, kappa)
heavy 1: not shown
heavy 2: not shown
light: B1 light
notes: He Ab; copies: 1 + 1 + 2
B28: GpH7-A5/GpH7-B3 variant D270_02A/GpL16-k0 (antibody, human IgG1, kappa)
heavy 1: not shown
heavy 2: not shown
light: B1 light
notes: He Ab; copies: 1 + 1 + 2
B29: GpH7-A5/GpH7-B3 variant A330_14T/GpL16-k0 (antibody, human IgG1, kappa)
heavy 1: not shown
heavy 2: not shown
light: B1 light
notes: He Ab; copies: 1 + 1 + 2
B30: GpH7-A5/GpH7-B3 variant E269_06M/GpL16-k0 (antibody, human IgG1, kappa)
heavy 1: not shown
heavy 2: not shown
light: B1 light
notes: He Ab; copies: 1 + 1 + 2
B31: GpH7-A5/GpH7-B3 variant E269_08L/GpL16-k0 (antibody, human IgG1, kappa)
heavy 1: not shown
heavy 2: not shown
light: B1 light
notes: He Ab; copies: 1 + 1 + 2
B32: GpH7-A5/GpH7-B3 variant E269_03V/GpL16-k0 (antibody, human IgG1, kappa)
heavy 1: not shown
heavy 2: not shown
light: B1 light
notes: He Ab; copies: 1 + 1 + 2
B33: GpH7-A5/GpH7-B3 variant A330_18N/GpL16-k0 (antibody, human IgG1, kappa)
heavy 1: not shown
heavy 2: not shown
light: B1 light
notes: He Ab; copies: 1 + 1 + 2
B34: GpH7-A5/GpH7-B3 variant D270_07I/GpL16-k0 (antibody, human IgG1, kappa)
heavy 1: not shown
heavy 2: not shown
light: B1 light
notes: He Ab; copies: 1 + 1 + 2
B35: GpH7-A5/GpH7-B3 variant A330_11K/GpL16-k0 (antibody, human IgG1, kappa)
heavy 1: not shown
heavy 2: not shown
light: B1 light
notes: He Ab; copies: 1 + 1 + 2
B36: GpH7-A5/GpH7-B3 variant A330_01G/GpL16-k0 (antibody, human IgG1, kappa)
heavy 1: not shown
heavy 2: not shown
light: B1 light
notes: He Ab; copies: 1 + 1 + 2
B37: GpH7-A5/GpH7-B3 variant D270_10E/GpL16-k0 (antibody, human IgG1, kappa)
heavy 1: not shown
heavy 2: not shown
light: B1 light
notes: He Ab; copies: 1 + 1 + 2
B38: GpH7-A5/GpH7-B3 variant D270_18N/GpL16-k0 (antibody, human IgG1, kappa)
heavy 1: not shown
heavy 2: not shown
light: B1 light
notes: He Ab; copies: 1 + 1 + 2
B39: GpH7-A5/GpH7-B3 variant A330_06M/GpL16-k0 (antibody, human IgG1, kappa)
heavy 1: not shown
heavy 2: not shown
light: B1 light
notes: He Ab; copies: 1 + 1 + 2
B40: GpH7-A5/GpH7-B3 variant E269_13S/GpL16-k0 (antibody, human IgG1, kappa)
heavy 1: not shown
heavy 2: not shown
light: B1 light
notes: He Ab; copies: 1 + 1 + 2
B41: GpH7-A5/GpH7-B3 variant E269_16H/GpL16-k0 (antibody, human IgG1, kappa)
heavy 1: not shown
heavy 2: not shown
light: B1 light
notes: He Ab; copies: 1 + 1 + 2
B42: GpH7-A5/GpH7-B3 variant A327_09D/GpL16-k0 (antibody, human IgG1, kappa)
heavy 1: not shown
heavy 2: not shown
light: B1 light
notes: He Ab; copies: 1 + 1 + 2
B43: GpH7-A5/GpH7-B3 variant E269_14T/GpL16-k0 (antibody, human IgG1, kappa)
heavy 1: not shown
heavy 2: not shown
light: B1 light
notes: He Ab; copies: 1 + 1 + 2
B44: GpH7-A5/GpH7-B3 variant E333_06M/GpL16-k0 (antibody, human IgG1, kappa)
heavy 1: not shown
heavy 2: not shown
light: B1 light
notes: He Ab; copies: 1 + 1 + 2
B45: GpH7-A5/GpH7-B3 variant E269_02A/GpL16-k0 (antibody, human IgG1, kappa)
heavy 1: not shown
heavy 2: not shown
light: B1 light
notes: He Ab; copies: 1 + 1 + 2
B46: GpH7-A5/GpH7-B3 variant E269_19Q/GpL16-k0 (antibody, human IgG1, kappa)
heavy 1: not shown
heavy 2: not shown
light: B1 light
notes: He Ab; copies: 1 + 1 + 2
B47: GpH7-A5/GpH7-B3 variant D270_14T/GpL16-k0 (antibody, human IgG1, kappa)
heavy 1: not shown
heavy 2: not shown
light: B1 light
notes: He Ab; copies: 1 + 1 + 2
B48: GpH7-A5/GpH7-B3 variant E269_18N/GpL16-k0 (antibody, human IgG1, kappa)
heavy 1: not shown
heavy 2: not shown
light: B1 light
notes: He Ab; copies: 1 + 1 + 2
B49: GpH7-A5/GpH7-B3 variant A327_06M/GpL16-k0 (antibody, human IgG1, kappa)
heavy 1: not shown
heavy 2: not shown
light: B1 light
notes: He Ab; copies: 1 + 1 + 2
B50: GpH7-A5/GpH7-B3 variant A327_20W/GpL16-k0 (antibody, human IgG1, kappa)
heavy 1: not shown
heavy 2: not shown
light: B1 light
notes: He Ab; copies: 1 + 1 + 2
B51: GpH7-A5/GpH7-B3 variant E269_01G/GpL16-k0 (antibody, human IgG1, kappa)
heavy 1: not shown
heavy 2: not shown
light: B1 light
notes: He Ab; copies: 1 + 1 + 2
B52: GpH7-A5/GpH7-B3 variant E333_11K/GpL16-k0 (antibody, human IgG1, kappa)
heavy 1: not shown
heavy 2: not shown
light: B1 light
notes: He Ab; copies: 1 + 1 + 2
B53: GpH7-A5/GpH7-B3 variant A330_07I/GpL16-k0 (antibody, human IgG1, kappa)
heavy 1: not shown
heavy 2: not shown
light: B1 light
notes: He Ab; copies: 1 + 1 + 2
B54: GpH7-A5/GpH7-B3 variant A327_19Q/GpL16-k0 (antibody, human IgG1, kappa)
heavy 1: not shown
heavy 2: not shown
light: B1 light
notes: He Ab; copies: 1 + 1 + 2
B55: GpH7-A5/GpH7-B3 variant D270_08L/GpL16-k0 (antibody, human IgG1, kappa)
heavy 1: not shown
heavy 2: not shown
light: B1 light
notes: He Ab; copies: 1 + 1 + 2
B56: GpH7-A5/GpH7-B3 variant A330_09D/GpL16-k0 (antibody, human IgG1, kappa)
heavy 1: not shown
heavy 2: not shown
light: B1 light
notes: He Ab; copies: 1 + 1 + 2
B57: GpH7-A5/GpH7-B3 variant A330_10E/GpL16-k0 (antibody, human IgG1, kappa)
heavy 1: not shown
heavy 2: not shown
light: B1 light
notes: He Ab; copies: 1 + 1 + 2
B58: GpH7-A5/GpH7-B3 variant D270_19Q/GpL16-k0 (antibody, human IgG1, kappa)
heavy 1: not shown
heavy 2: not shown
light: B1 light
notes: He Ab; copies: 1 + 1 + 2
B59: GpH7-A5/GpH7-B3 variant A327_18N/GpL16-k0 (antibody, human IgG1, kappa)
heavy 1: not shown
heavy 2: not shown
light: B1 light
notes: He Ab; copies: 1 + 1 + 2
B60: GpH7-A5/GpH7-B3 variant D270_03V/GpL16-k0 (antibody, human IgG1, kappa)
heavy 1: not shown
heavy 2: not shown
light: B1 light
notes: He Ab; copies: 1 + 1 + 2

Target: T1, FcγRIIIa (human, UniProt P08637 17-208)
T1 construct: extracellular domain; also called 3a; FcγRIIIa extracellular domain
T1 sequence (P08637 other isoform, or with tags, fused parts or gaps): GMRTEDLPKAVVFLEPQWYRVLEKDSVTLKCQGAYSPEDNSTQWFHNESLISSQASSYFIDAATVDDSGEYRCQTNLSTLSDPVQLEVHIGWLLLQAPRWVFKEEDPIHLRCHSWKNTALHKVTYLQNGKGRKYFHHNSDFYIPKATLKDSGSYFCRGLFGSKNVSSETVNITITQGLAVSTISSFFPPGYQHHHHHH
Assay: SPR (Biacore);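 note: antibody variants captured on an SPR sensor chip, with FcγRIIIa passed over as analyte in HBS-EP+ buffer at 25 °C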

Binder | He/Con 3a
B1 | 113 % of GpH7-A5/GpH7-B3/GpL16-k0
B2 | 102 % of GpH7-A5/GpH7-B3/GpL16-k0
B3 | 101 % of GpH7-A5/GpH7-B3/GpL16-k0
B4 | 92.8 % of GpH7-A5/GpH7-B3/GpL16-k0
B5 | 63.7 % of GpH7-A5/GpH7-B3/GpL16-k0
B6 | 96 % of GpH7-A5/GpH7-B3/GpL16-k0
B7 | 80.3 % of GpH7-A5/GpH7-B3/GpL16-k0
B8 | 105 % of GpH7-A5/GpH7-B3/GpL16-k0

Target: T2, FcγRIIIa extracellular domain, C-terminal His tag (human, UniProt P08637 17-208)
T2 construct: extracellular domain; also called 3a
T2 sequence (P08637 other isoform, or with tags, fused parts or gaps): as above
Assay: SPR, binding activity relative to GpH7-A5/GpH7-B3/GpL16-k0 (=100)

Binder | He/Con 3a [%]
B9 | 75.6
B10 | 100
B11 | 122
B12 | 101
B13 | 86.3
B14 | 51.5
B15 | 102
B16 | 98.8
B17 | 122
B18 | 77.3
B19 | 61.9
B20 | 55.3
B21 | 60
B22 | 51.4
B23 | 70.5
B24 | 144
B25 | 102
B26 | 66.7
B27 | 106
B28 | 50.5
B29 | 85.8
B30 | 57.9
B31 | 51.5
B32 | 56
B33 | 67.3
B34 | 63.1

Binder | He/Con 3a [%]
B35 | 91.8
B36 | 87.3
B37 | 112
B38 | 51.2
B39 | 139
B40 | 62.1
B41 | 50.7
B42 | 86
B43 | 59.7
B44 | 100
B45 | 68
B46 | 64.3
B47 | 55.4
B48 | 57.2
B49 | 54
B50 | 52.6
B51 | 61.6
B52 | 97.7
B53 | 101
B54 | 54
B55 | 65.1
B56 | 56.4
B57 | 82.8
B58 | 74.2
B59 | 62.8
B60 | 54.6
